According to IntAct's records for PubMed 10898792:

B1: Cell division control protein 13 (Saccharomyces cerevisiae), P32797 (parent)
chain: MDTLEEPECPPHKNRIFVSSSKDFEGYPSKAIVPVQFVALLTSIHLTETKCLLGFSNFERRGDQSQEDQYLIKLKFKDRGSERLARITISLLCQYFDIELPDLDSDSGASPTVILRDIHLERLCFSSCKALYVSKHGNYTLFLEDIKPLDLVSVISTISTKSTNSSKHSSSELISECDLNNSLVDIFNNLIEMNRDEKNRFKFVKLIHYDIELKKFVQDQQKVLSQKSKAAAINPFFVPNRLGIPYIESQNEFNSQLMTLNVDEPTTDISNMGEEMHDSADPIEDSDSSTTSSTGKYFSSKSYIQSQTPERKTSVPNNWHDDDSGSKRKRKLSFHSPNASSIRKAISYEQLSLASVGSVERLEGKIVGMNPPQFASINEFKYCTLKLYFTQLLPNVPDKVLVPGVNCIEIVIPTRERICELFGVLNCQSDKISDILLLEKPDRISVEVERILWDNDKTASPGMAVWSLKNISTDTQAQAQVQVPAQSSASIDPSRTRMSKMARKDPTIEFCQLGLDTFETKYITMFGMLVSCSFDKPAFISFVFSDFTKNDIVQNYLYDRYLIDYENKLELNEGFKAIMYKNQFETFDSKLRKIFNNGLRDLQNGRDENLSQYGIVCKMNIKVKMYNGKLNAIVRECEPVPHSQISSIASPSQCEHLRLFYQRAFKRIGESAISRYFEEYRRFFPIHRNGSHLAKLRFDEVKHEPKKSPTTPALAEHIPDLNADVSSFDVKFTDISSLLDSSARLPRPQQTHKSNTLYSCEGRIIAIEYHASDLCFHITNELPLLQTRGLAPERVLQLHIITSKNFAYFFNRSSAYLQRQPLEEKYTQLAQFLGHSFKFNITSSLTLFPDTTVALQIWCPIECTFRELQQQLAHPKVAAAPDSGSLDCAINATVNPLRLLAAQNGVTVKKEEDNDDDAGAVPTS
partner: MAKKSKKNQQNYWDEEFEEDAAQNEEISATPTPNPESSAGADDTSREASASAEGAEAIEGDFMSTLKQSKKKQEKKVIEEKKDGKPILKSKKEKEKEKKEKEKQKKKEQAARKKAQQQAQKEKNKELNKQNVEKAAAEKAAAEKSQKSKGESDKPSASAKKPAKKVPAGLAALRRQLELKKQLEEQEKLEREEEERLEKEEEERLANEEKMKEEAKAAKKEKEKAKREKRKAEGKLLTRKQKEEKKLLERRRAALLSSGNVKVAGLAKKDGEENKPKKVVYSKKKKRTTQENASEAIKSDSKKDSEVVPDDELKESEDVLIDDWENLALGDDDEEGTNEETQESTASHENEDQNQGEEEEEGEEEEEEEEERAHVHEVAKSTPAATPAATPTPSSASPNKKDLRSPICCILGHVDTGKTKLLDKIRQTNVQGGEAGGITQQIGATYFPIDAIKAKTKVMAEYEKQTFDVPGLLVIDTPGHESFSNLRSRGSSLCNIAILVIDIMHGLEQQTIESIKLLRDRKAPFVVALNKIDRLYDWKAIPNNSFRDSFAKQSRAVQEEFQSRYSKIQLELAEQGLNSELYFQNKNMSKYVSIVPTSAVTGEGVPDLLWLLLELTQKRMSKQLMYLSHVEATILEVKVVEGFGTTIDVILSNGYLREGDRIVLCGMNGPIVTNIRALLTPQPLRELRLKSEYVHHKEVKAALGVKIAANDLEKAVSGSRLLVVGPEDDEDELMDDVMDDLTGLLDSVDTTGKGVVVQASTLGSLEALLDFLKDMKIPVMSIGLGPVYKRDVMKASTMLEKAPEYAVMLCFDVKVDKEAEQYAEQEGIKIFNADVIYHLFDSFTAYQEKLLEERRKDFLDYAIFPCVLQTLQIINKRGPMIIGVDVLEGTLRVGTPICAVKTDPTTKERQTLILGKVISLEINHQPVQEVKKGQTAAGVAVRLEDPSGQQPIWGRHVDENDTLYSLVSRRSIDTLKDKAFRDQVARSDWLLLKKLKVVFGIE
B2: Cell division control protein 13 (Saccharomyces cerevisiae), P32797 (parent)
chain: B1 chain
partner: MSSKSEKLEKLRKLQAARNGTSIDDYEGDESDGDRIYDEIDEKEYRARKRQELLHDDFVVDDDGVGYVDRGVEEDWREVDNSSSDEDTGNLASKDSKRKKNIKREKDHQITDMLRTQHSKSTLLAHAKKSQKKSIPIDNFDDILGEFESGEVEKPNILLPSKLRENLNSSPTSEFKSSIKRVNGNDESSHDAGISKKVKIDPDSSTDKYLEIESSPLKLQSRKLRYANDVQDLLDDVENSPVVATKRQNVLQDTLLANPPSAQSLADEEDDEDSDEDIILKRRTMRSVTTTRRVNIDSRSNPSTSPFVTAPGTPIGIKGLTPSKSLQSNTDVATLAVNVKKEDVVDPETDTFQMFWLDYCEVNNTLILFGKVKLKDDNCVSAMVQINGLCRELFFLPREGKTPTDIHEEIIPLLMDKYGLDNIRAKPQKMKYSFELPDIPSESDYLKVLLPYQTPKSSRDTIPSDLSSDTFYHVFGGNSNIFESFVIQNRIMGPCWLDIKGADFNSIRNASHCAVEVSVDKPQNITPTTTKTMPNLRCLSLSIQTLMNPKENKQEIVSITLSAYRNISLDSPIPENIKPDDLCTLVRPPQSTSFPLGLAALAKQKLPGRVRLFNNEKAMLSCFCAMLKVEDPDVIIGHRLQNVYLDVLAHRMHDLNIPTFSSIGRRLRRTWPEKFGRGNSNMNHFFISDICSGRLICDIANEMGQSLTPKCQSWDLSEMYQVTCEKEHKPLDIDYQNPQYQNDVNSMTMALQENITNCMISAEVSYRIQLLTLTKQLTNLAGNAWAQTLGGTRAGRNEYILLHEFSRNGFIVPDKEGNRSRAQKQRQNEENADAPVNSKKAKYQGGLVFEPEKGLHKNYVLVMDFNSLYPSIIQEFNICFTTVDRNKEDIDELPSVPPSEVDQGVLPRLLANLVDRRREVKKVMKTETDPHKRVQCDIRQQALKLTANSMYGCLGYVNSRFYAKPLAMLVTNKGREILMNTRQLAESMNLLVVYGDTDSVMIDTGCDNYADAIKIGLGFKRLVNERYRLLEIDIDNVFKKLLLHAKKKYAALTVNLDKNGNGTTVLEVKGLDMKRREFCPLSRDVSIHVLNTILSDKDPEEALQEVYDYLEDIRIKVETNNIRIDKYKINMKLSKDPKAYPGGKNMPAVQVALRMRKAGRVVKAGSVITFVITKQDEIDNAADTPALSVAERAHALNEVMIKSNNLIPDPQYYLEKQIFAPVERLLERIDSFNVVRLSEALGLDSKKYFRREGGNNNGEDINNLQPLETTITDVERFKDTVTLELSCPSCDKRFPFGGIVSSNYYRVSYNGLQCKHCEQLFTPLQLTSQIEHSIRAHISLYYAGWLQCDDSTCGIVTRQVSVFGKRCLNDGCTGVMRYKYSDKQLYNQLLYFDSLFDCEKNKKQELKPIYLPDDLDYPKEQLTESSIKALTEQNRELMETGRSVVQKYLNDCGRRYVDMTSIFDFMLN
B3: DNA polymerase alpha catalytic subunit A (Saccharomyces cerevisiae), P13382 (parent)
chain: B2 partner
partner: B1 chain

Variants of: B1
Conditions: with if2p_yeast FUN12, P39730

| Variant | effect of a mutation on the interaction |
| --- | --- |
| I72T | decreasing interaction |
| K129R | decreasing interaction |
| G243R | decreasing interaction |

Variants of: B2
Conditions: with dpola_yeast POL1, P13382

| Variant | effect of a mutation on the interaction |
| --- | --- |
| K50Q | decreasing interaction |
| I72T | decreasing interaction |
| D97F | decreasing interaction |
| C124R | decreasing interaction |
| K129R | decreasing interaction |
| L149S | decreasing interaction |
| S228P | decreasing interaction |
| G243R | decreasing interaction |
| Y382H | decreasing interaction |
| L392P | decreasing interaction |
| I523V | decreasing interaction |

Variants of: B3
Conditions: with cdc13_yeast CDC13, P32797

| Variant | effect of a mutation on the interaction |
| --- | --- |
| D236N | decreasing interaction |
| E238K | decreasing interaction |
| P241T | decreasing interaction |
